The values that follow come from patent US20080057492A1, “Interacting site for gp41 on gp120 of hiv-1” (priority 2002, published 2008).

Common to all, as to test: cell-based or functional assay
The target of experiment [1] is MN-P envelope glycoprotein (neutralization resistant primary clone of the HIV-1 MN strain) (HIV-1 MN strain) (UniProt P05877).
The target in experiment [2] is Chimera P/7CD4bs envelope glycoprotein.
The target of experiment [3] is Chimera P/7CD4bs/V3 envelope glycoprotein.

As for monoclonal antibody 4.8d, the fifty percent neutralization concentration (pseudotyped virus) in experiment [1] is more than 2.5 µg/mL; in experiment [2] it was 60 ng/mL; in experiment [3], 20 ng/mL.
Taken in the same sequence, the figures for monoclonal antibody 17b were more than 2.5 µg/mL, 480 ng/mL and 210 ng/mL.
Taken in the same sequence, the figures for monoclonal antibody 19b were more than 2.5 µg/mL, 60 ng/mL and 16 ng/mL.
